# Measured values as given in patent US20240018502A1.
# Target: plasma purified human complement protein C3 (human) (UniProt P01024)
# Experiment: cell-based or functional assay
# plasma purified human complement protein C3 (human), sequence (P01024 23-667, chain 1 of 2): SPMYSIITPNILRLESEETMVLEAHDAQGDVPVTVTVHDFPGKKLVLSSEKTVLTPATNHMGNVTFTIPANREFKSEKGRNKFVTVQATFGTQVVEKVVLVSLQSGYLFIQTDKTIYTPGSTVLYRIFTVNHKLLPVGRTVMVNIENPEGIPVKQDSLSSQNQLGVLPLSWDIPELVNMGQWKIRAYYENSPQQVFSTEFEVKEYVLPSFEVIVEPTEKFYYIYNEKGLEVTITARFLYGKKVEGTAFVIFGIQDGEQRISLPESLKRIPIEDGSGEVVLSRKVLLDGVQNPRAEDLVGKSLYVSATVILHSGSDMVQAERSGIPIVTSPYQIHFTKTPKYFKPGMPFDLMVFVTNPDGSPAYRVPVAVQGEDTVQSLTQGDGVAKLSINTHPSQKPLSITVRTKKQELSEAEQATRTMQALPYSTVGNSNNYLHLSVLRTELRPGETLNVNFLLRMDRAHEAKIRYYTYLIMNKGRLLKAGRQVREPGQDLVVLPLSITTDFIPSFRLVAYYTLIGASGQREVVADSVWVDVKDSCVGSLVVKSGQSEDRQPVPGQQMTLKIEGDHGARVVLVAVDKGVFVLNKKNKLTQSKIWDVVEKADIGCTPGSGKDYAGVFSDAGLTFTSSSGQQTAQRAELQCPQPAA
# plasma purified human complement protein C3 (human), sequence (P01024 672-1663, chain 2 of 2): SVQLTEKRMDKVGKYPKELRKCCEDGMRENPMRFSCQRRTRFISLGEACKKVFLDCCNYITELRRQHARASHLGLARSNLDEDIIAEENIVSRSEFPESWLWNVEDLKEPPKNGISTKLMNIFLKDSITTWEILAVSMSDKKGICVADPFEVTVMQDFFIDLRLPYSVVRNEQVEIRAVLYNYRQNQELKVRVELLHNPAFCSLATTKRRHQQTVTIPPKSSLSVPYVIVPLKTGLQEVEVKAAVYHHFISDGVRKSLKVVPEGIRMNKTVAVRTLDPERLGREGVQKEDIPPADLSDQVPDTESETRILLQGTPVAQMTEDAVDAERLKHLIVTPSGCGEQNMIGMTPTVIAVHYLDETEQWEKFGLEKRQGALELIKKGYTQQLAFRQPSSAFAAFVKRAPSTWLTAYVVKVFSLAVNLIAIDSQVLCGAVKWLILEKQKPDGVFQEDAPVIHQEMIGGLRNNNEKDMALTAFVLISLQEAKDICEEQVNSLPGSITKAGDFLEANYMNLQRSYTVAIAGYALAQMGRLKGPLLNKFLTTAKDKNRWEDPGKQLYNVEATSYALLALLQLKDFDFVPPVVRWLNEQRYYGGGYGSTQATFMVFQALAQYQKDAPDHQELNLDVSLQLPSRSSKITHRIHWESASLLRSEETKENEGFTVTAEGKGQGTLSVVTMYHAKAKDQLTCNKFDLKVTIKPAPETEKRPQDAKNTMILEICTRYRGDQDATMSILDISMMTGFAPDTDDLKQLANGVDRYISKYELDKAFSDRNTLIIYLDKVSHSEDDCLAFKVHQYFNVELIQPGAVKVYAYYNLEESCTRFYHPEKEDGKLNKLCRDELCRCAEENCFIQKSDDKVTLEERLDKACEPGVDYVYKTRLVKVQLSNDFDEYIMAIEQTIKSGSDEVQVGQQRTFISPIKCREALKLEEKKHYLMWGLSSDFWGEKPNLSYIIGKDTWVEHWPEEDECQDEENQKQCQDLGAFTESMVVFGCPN
row,Binder,EC50 of hC3 cleavage
1,MTSP-1 H40R/I41H/F97D/F99L/C122S/Q192G/D217I/K224S (enzyme) VVGGTDADEGEWPWQVSLHALGQGRHCGASLISPNWLVSAAHCYIDDRGFRYSDPTQWTAFLGLHDQSQRSAPGVQERRLKRIISHPFFNDDTLDYDIALLELEKPAEYSSMVRPISLPDASHVFPAGKAIWVTGWGHTQYGGTGALILQKGEIRVINQTTCENLLPQQITPRMMCVGFLSGGVDSCGGDSGGPLSSVEADGRIFQAGVVSWGIGCAQRNSPGVYTRLPLFRDWIKENTGV,0.0193 µM
2,MTSP-1 H40P/I41R/F99L/C122S/G151K/Q192G (enzyme) VVGGTDADEGEWPWQVSLHALGQGPRCGASLISPNWLVSAAHCYIDDRGFRYSDPTQWTAFLGLHDQSQRSAPGVQERRLKRIISHPFFNDFTLDYDIALLELEKPAEYSSMVRPISLPDASHVFPAGKAIWVTGWGHTQYGGTKALILQKGEIRVINQTTCENLLPQQITPRMMCVGFLSGGVDSCGGDSGGPLSSVEADGRIFQAGVVSWGDGCAQRNKPGVYTRLPLFRDWIKENTGV,0.0961 µM
3,MTSP-1 H40R/I41H/F97D/F99L/C122S/Q192G/D217K/K224A (enzyme) VVGGTDADEGEWPWQVSLHALGQGRHCGASLISPNWLVSAAHCYIDDRGFRYSDPTQWTAFLGLHDQSQRSAPGVQERRLKRIISHPFFNDDTLDYDIALLELEKPAEYSSMVRPISLPDASHVFPAGKAIWVTGWGHTQYGGTGALILQKGEIRVINQTTCENLLPQQITPRMMCVGFLSGGVDSCGGDSGGPLSSVEADGRIFQAGVVSWGKGCAQRNAPGVYTRLPLFRDWIKENTGV,0.0234 µM
4,MTSP-1 H40R/I41H/F97D/F99L/C122S/Q175R/Q192G/D217E/K224R (enzyme) VVGGTDADEGEWPWQVSLHALGQGRHCGASLISPNWLVSAAHCYIDDRGFRYSDPTQWTAFLGLHDQSQRSAPGVQERRLKRIISHPFFNDDTLDYDIALLELEKPAEYSSMVRPISLPDASHVFPAGKAIWVTGWGHTQYGGTGALILQKGEIRVINQTTCENLLPQRITPRMMCVGFLSGGVDSCGGDSGGPLSSVEADGRIFQAGVVSWGEGCAQRNRPGVYTRLPLFRDWIKENTGV,0.0312 µM
5,MTSP-1 H40P/I41R/F99L/C122S/G151E/Q192G (enzyme) VVGGTDADEGEWPWQVSLHALGQGPRCGASLISPNWLVSAAHCYIDDRGFRYSDPTQWTAFLGLHDQSQRSAPGVQERRLKRIISHPFFNDFTLDYDIALLELEKPAEYSSMVRPISLPDASHVFPAGKAIWVTGWGHTQYGGTEALILQKGEIRVINQTTCENLLPQQITPRMMCVGFLSGGVDSCGGDSGGPLSSVEADGRIFQAGVVSWGDGCAQRNKPGVYTRLPLFRDWIKENTGV,0.153 µM
6,MTSP-1 H40R/I41H/F97D/C122S/Q175R/Q192G/D217I/K224Q (enzyme) VVGGTDADEGEWPWQVSLHALGQGRHCGASLISPNWLVSAAHCYIDDRGFRYSDPTQWTAFLGLHDQSQRSAPGVQERRLKRIISHPFFNDDTFDYDIALLELEKPAEYSSMVRPISLPDASHVFPAGKAIWVTGWGHTQYGGTGALILQKGEIRVINQTTCENLLPQRITPRMMCVGFLSGGVDSCGGDSGGPLSSVEADGRIFQAGVVSWGIGCAQRNQPGVYTRLPLFRDWIKENTGV,0.0931 µM
7,MTSP-1 H40P/I41R/F99L/C122S/Q192G (enzyme) VVGGTDADEGEWPWQVSLHALGQGPRCGASLISPNWLVSAAHCYIDDRGFRYSDPTQWTAFLGLHDQSQRSAPGVQERRLKRIISHPFFNDFTLDYDIALLELEKPAEYSSMVRPISLPDASHVFPAGKAIWVTGWGHTQYGGTGALILQKGEIRVINQTTCENLLPQQITPRMMCVGFLSGGVDSCGGDSGGPLSSVEADGRIFQAGVVSWGDGCAQRNKPGVYTRLPLFRDWIKENTGV,0.0624 µM
8,MTSP-1 H40R/I41H/F99L/C122S/G151E/Q192G (enzyme) VVGGTDADEGEWPWQVSLHALGQGRHCGASLISPNWLVSAAHCYIDDRGFRYSDPTQWTAFLGLHDQSQRSAPGVQERRLKRIISHPFFNDFTLDYDIALLELEKPAEYSSMVRPISLPDASHVFPAGKAIWVTGWGHTQYGGTEALILQKGEIRVINQTTCENLLPQQITPRMMCVGFLSGGVDSCGGDSGGPLSSVEADGRIFQAGVVSWGDGCAQRNKPGVYTRLPLFRDWIKENTGV,0.829 µM
9,MTSP-1 I41R/ins97aE/F97T/T98G/F99L/C122S/G151D/Q175L/Q192E (enzyme) VVGGTDADEGEWPWQVSLHALGQGHRCGASLISPNWLVSAAHCYIDDRGFRYSDPTQWTAFLGLHDQSQRSAPGVQERRLKRIISHPFFNDTEGLDYDIALLELEKPAEYSSMVRPISLPDASHVFPAGKAIWVTGWGHTQYGGTDALILQKGEIRVINQTTCENLLPQLITPRMMCVGFLSGGVDSCEGDSGGPLSSVEADGRIFQAGVVSWGDGCAQRNKPGVYTRLPLFRDWIKENTGV,0.163 µM
10,MTSP-1 I41R/ins97aE/F97T/T98G/F99L/C122S/G151D/Q175T/Q192D (enzyme) VVGGTDADEGEWPWQVSLHALGQGHRCGASLISPNWLVSAAHCYIDDRGFRYSDPTQWTAFLGLHDQSQRSAPGVQERRLKRIISHPFFNDTEGLDYDIALLELEKPAEYSSMVRPISLPDASHVFPAGKAIWVTGWGHTQYGGTDALILQKGEIRVINQTTCENLLPQTITPRMMCVGFLSGGVDSCDGDSGGPLSSVEADGRIFQAGVVSWGDGCAQRNKPGVYTRLPLFRDWIKENTGV,1.62 µM
11,MTSP-1 I41R/ins97aE/F97T/T98G/F99L/C122S/G151D/Q175T/Q192E (enzyme) VVGGTDADEGEWPWQVSLHALGQGHRCGASLISPNWLVSAAHCYIDDRGFRYSDPTQWTAFLGLHDQSQRSAPGVQERRLKRIISHPFFNDTEGLDYDIALLELEKPAEYSSMVRPISLPDASHVFPAGKAIWVTGWGHTQYGGTDALILQKGEIRVINQTTCENLLPQTITPRMMCVGFLSGGVDSCEGDSGGPLSSVEADGRIFQAGVVSWGDGCAQRNKPGVYTRLPLFRDWIKENTGV,0.743 µM
12,MTSP-1 I41R/F97T/ins97aE/T98G/F99L/C122S/G151E/Q175T/Q192E (enzyme) VVGGTDADEGEWPWQVSLHALGQGHRCGASLISPNWLVSAAHCYIDDRGFRYSDPTQWTAFLGLHDQSQRSAPGVQERRLKRIISHPFFNDTEGLDYDIALLELEKPAEYSSMVRPISLPDASHVFPAGKAIWVTGWGHTQYGGTEALILQKGEIRVINQTTCENLLPQTITPRMMCVGFLSGGVDSCEGDSGGPLSSVEADGRIFQAGVVSWGDGCAQRNKPGVYTRLPLFRDWIKENTGV,0.363 µM
13,MTSP-1 I41R/F97T/ins97aE/T98G/F99L/C122S/G151N/Q175S/Q192E (enzyme) VVGGTDADEGEWPWQVSLHALGQGHRCGASLISPNWLVSAAHCYIDDRGFRYSDPTQWTAFLGLHDQSQRSAPGVQERRLKRIISHPFFNDTEGLDYDIALLELEKPAEYSSMVRPISLPDASHVFPAGKAIWVTGWGHTQYGGTNALILQKGEIRVINQTTCENLLPQSITPRMMCVGFLSGGVDSCEGDSGGPLSSVEADGRIFQAGVVSWGDGCAQRNKPGVYTRLPLFRDWIKENTGV,0.267 µM
14,MTSP-1 I41R/ins97aE/F97T/T98G/F99L/C122S/G151E/Q175T/Q192D (enzyme) VVGGTDADEGEWPWQVSLHALGQGHRCGASLISPNWLVSAAHCYIDDRGFRYSDPTQWTAFLGLHDQSQRSAPGVQERRLKRIISHPFFNDTEGLDYDIALLELEKPAEYSSMVRPISLPDASHVFPAGKAIWVTGWGHTQYGGTEALILQKGEIRVINQTTCENLLPQTITPRMMCVGFLSGGVDSCDGDSGGPLSSVEADGRIFQAGVVSWGDGCAQRNKPGVYTRLPLFRDWIKENTGV,1.77 µM
15,MTSP-1 I41R/ins97aE/F97T/T98G/F99L/C122S/G151N/Q175T/Q192D (enzyme) VVGGTDADEGEWPWQVSLHALGQGHRCGASLISPNWLVSAAHCYIDDRGFRYSDPTQWTAFLGLHDQSQRSAPGVQERRLKRIISHPFFNDTEGLDYDIALLELEKPAEYSSMVRPISLPDASHVFPAGKAIWVTGWGHTQYGGTNALILQKGEIRVINQTTCENLLPQTITPRMMCVGFLSGGVDSCDGDSGGPLSSVEADGRIFQAGVVSWGDGCAQRNKPGVYTRLPLFRDWIKENTGV,9.99 µM
16,MTSP-1 I41R/ins97aE/F97T/T98G/F99L/C122S/G151N/Q175T/Q192E (enzyme) VVGGTDADEGEWPWQVSLHALGQGHRCGASLISPNWLVSAAHCYIDDRGFRYSDPTQWTAFLGLHDQSQRSAPGVQERRLKRIISHPFFNDTEGLDYDIALLELEKPAEYSSMVRPISLPDASHVFPAGKAIWVTGWGHTQYGGTNALILQKGEIRVINQTTCENLLPQTITPRMMCVGFLSGGVDSCEGDSGGPLSSVEADGRIFQAGVVSWGDGCAQRNKPGVYTRLPLFRDWIKENTGV,1.41 µM
17,MTSP-1 I41R/ins97aE/F97T/T98G/F99L/C122S/G151N/Q175L/Q192D (enzyme) VVGGTDADEGEWPWQVSLHALGQGHRCGASLISPNWLVSAAHCYIDDRGFRYSDPTQWTAFLGLHDQSQRSAPGVQERRLKRIISHPFFNDTEGLDYDIALLELEKPAEYSSMVRPISLPDASHVFPAGKAIWVTGWGHTQYGGTNALILQKGEIRVINQTTCENLLPQLITPRMMCVGFLSGGVDSCDGDSGGPLSSVEADGRIFQAGVVSWGDGCAQRNKPGVYTRLPLFRDWIKENTGV,0.622 µM
18,MTSP-1 I41R/ins97aE/F97T/T98G/F99L/C122S/G151N/Q175L/Q192E (enzyme) VVGGTDADEGEWPWQVSLHALGQGHRCGASLISPNWLVSAAHCYIDDRGFRYSDPTQWTAFLGLHDQSQRSAPGVQERRLKRIISHPFFNDTEGLDYDIALLELEKPAEYSSMVRPISLPDASHVFPAGKAIWVTGWGHTQYGGTNALILQKGEIRVINQTTCENLLPQLITPRMMCVGFLSGGVDSCEGDSGGPLSSVEADGRIFQAGVVSWGDGCAQRNKPGVYTRLPLFRDWIKENTGV,0.311 µM
19,MTSP-1 H40P/I41R/ins97aE/F97T/T98G/F99L/C122S/G151D/Q175L/Q192E (enzyme) VVGGTDADEGEWPWQVSLHALGQGPRCGASLISPNWLVSAAHCYIDDRGFRYSDPTQWTAFLGLHDQSQRSAPGVQERRLKRIISHPFFNDTEGLDYDIALLELEKPAEYSSMVRPISLPDASHVFPAGKAIWVTGWGHTQYGGTDALILQKGEIRVINQTTCENLLPQLITPRMMCVGFLSGGVDSCEGDSGGPLSSVEADGRIFQAGVVSWGDGCAQRNKPGVYTRLPLFRDWIKENTGV,0.212 µM
20,MTSP-1 I41R/ins97aE/F97T/T98G/F99L/C122S/Q175L/Q192E (enzyme) VVGGTDADEGEWPWQVSLHALGQGHRCGASLISPNWLVSAAHCYIDDRGFRYSDPTQWTAFLGLHDQSQRSAPGVQERRLKRIISHPFFNDTEGLDYDIALLELEKPAEYSSMVRPISLPDASHVFPAGKAIWVTGWGHTQYGGTGALILQKGEIRVINQTTCENLLPQLITPRMMCVGFLSGGVDSCEGDSGGPLSSVEADGRIFQAGVVSWGDGCAQRNKPGVYTRLPLFRDWIKENTGV,0.523 µM
21,MTSP-1 H40P/I41R/ins97aE/F97T/T98G/F99L/C122S/Q175L/Q192E (enzyme) VVGGTDADEGEWPWQVSLHALGQGPRCGASLISPNWLVSAAHCYIDDRGFRYSDPTQWTAFLGLHDQSQRSAPGVQERRLKRIISHPFFNDTEGLDYDIALLELEKPAEYSSMVRPISLPDASHVFPAGKAIWVTGWGHTQYGGTGALILQKGEIRVINQTTCENLLPQLITPRMMCVGFLSGGVDSCEGDSGGPLSSVEADGRIFQAGVVSWGDGCAQRNKPGVYTRLPLFRDWIKENTGV,0.442 µM
